Data on two proteins can be found in publication PMC3326396 (Biochemistry, 2012).

The stoichiometry N is the number of molecules, sites or subunits per partner or assembly.

The data set concerns the molecule itself. As to the kind of experiment: SEC. For orientation: SEC sorts molecules by how far they enter the pores of the column.

B1: N-terminal Strep2-(G4S)3-tagged PhaC purified from R. eutropha (enzyme, Ralstonia eutropha H16, UniProt P23608 2-589, looked up)
chain: ATGKGAAASTQEGKSQPFKVTPGPFDPATWLEWSRQWQGTEGNGHAAASGIPGLDALAGVKIAPAQLGDIQQRYMKDFSALWQAMAEGKAEATGPLHDRRFAGDAWRTNLPYRFAAAFYLLNARALTELADAVEADAKTRQRIRFAISQWVDAMSPANFLATNPEAQRLLIESGGESLRAGVRNMMEDLTRGKISQTDESAFEVGRNVAVTEGAVVFENEYFQLLQYKPLTDKVHARPLLMVPPCINKYYILDLQPESSLVRHVVEQGHTVFLVSWRNPDASMAGSTWDDYIEHAAIRAIEVARDISGQDKINVLGFCVGGTIVSTALAVLAARGEHPAASVTLLTTLLDFADTGILDVFVDEGHVQLREATLGGGAGAPCALLRGLELANTFSFLRPNDLVWNYVVDNYLKGNTPVPFDLLFWNGDATNLPGPWYCWYLRHTYLQNELKVPGKLTVCGVPVDLASIDVPTYIYGSREDHIVPWTAAYASTALLANKLRFVLGASGHIAGVINPPAKNKRSHWTNDALPESPQQWLAGAIEHHGSWWPDWTAWLAGQAGAKRAAPANYGNARYRAIEPAPGRYVKAKA
For the protein B1, the “stoichiometry N” value came out at 2.

B2: N-terminal-Strep2-(G4S)3-tagged PhaC purified from E. coli (enzyme, Ralstonia eutropha H16, UniProt P23608 2-589, looked up)
chain: B1 chain
As to B2, the “stoichiometry N” value worked out at 2.
